Measurements from patent publication US20200407442A1 (WUXI BIOLOGICS IRELAND, published 2020).

What was measured:
Variant 7: xPro1.FL-x7 = biological target: T1, Variant 7: xPro1.FL-x7 (human; mouse); experiment: FACS, 1 ug/mL antibody, transfected 293F cells
T1 construct: Chimeric full-length LAG-3 on transfected 293F cells
T1 chain: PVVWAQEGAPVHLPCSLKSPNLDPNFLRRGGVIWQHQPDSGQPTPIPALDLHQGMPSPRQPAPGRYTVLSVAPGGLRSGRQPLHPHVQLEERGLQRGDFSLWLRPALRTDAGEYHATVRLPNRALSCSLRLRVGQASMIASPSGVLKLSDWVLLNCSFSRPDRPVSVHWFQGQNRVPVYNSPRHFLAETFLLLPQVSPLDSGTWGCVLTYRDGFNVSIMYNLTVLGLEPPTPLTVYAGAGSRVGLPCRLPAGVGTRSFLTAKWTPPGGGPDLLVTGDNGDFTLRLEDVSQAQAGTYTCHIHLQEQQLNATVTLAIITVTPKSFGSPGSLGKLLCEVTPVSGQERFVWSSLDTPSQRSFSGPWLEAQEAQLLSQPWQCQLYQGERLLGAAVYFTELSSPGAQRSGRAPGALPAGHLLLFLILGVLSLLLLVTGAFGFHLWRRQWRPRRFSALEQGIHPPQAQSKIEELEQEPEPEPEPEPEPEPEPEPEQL

Variant 8: xPro1.FL-x8 = biological target: T2, Variant 8: xPro1.FL-x8 (human; mouse); experiment: FACS, 1 ug/mL antibody, transfected 293F cells
T2 construct: Chimeric full-length LAG-3 on transfected 293F cells
T2 chain: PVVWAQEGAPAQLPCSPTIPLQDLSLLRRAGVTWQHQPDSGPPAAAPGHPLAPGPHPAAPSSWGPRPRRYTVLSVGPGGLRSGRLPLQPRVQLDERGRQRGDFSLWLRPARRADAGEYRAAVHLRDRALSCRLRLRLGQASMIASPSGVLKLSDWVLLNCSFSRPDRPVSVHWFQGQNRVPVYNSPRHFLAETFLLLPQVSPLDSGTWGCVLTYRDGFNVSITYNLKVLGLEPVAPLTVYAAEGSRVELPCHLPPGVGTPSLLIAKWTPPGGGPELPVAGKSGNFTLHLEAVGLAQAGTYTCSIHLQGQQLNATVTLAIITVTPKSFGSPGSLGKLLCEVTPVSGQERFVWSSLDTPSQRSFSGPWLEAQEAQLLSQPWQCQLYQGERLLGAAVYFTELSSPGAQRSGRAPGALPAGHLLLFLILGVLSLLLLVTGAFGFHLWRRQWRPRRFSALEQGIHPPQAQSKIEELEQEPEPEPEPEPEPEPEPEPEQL

[1] = biological target: T3, full-length human LAG-3 on cells (human, UniProt P18627 23-525); experiment: FACS competition on Flp-In-293 cells expressing human LAG-3: biotinylated BMK7 at 1 ug/mL, serially diluted antibody, Streptavidin-PE
T3 construct: Expressed on Flp-In-293, CHO or 293F transfectants; also called hPro1.FL; cell surface human LAG-3
T3 sequence: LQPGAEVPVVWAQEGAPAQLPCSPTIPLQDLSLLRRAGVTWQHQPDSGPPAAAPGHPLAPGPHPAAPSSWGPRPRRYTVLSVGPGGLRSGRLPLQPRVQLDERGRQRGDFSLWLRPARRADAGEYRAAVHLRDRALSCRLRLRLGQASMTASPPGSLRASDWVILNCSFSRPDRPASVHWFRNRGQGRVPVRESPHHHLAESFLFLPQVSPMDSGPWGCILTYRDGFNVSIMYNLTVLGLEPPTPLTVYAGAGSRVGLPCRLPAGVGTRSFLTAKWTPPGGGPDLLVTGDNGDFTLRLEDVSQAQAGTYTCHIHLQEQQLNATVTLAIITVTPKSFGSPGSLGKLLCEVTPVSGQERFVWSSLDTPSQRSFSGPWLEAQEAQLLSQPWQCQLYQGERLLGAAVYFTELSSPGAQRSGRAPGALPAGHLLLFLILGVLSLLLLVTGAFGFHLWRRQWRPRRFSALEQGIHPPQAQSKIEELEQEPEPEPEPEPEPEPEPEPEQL
Method: (§1) The binding epitope of LAG-3 antibodies was binned against benchmark antibodies BMK1, BMK7 and BMK5 by FACS assay. Flp-In-293 cells expressing human LAG-3 at the cell surface were incubated with biotinylated benchmark antibodies at concentration of 1 μg/mL for 1 hour, followed by the adding of serially diluted LAG-3 antibodies. Streptavidin-PE antibody (Jackson Immunoresearch Lab) was used to detect the binding of benchmark antibodies to cells. The MFI was evaluated by flow cytometry and analyzed by FlowJo.

[2] = biological target: T3, full-length human LAG-3 on cells; experiment: FACS competition on Flp-In-293 cells expressing human LAG-3: biotinylated BMK5 at 1 ug/mL, serially diluted antibody, Streptavidin-PE
Method: as §1

MFI (Variant 7: xPro1.FL-x7): 39.3 | PE+ % (Variant 7: xPro1.FL-x7): 1.52% | MFI (Variant 8: xPro1.FL-x8): 7430 | PE+ % (Variant 8: xPro1.FL-x8): 97.6% | IC50 (read off the curve) [1]: ~3 nM | IC50 (read off the curve) [2]: ~1 nM
B1: 1.53.3-uAb-IgG4k (antibody, V domains shown)
VH: QVQLQQWGAGLLKPSETLSLTCGVYGGSFSGYYWSWIRQPPGMGLEWIGEINHRGNTNYNPSLKSRVTISEDTSKNQFSLRLSSVTAADTAVYFCTRGEDYSDYDYYGDFWGQGTLVTVSS
VL: EIVLTQSPATLSLSQGERATLSCRASQSISSYLAWYQQKPGQAPRLLIYAASNRATGIPARFSGSGSGTDFTLTISSLEPEDFAIYYCQQRSNWPLTFGGGTKVEIK
notes: Fully human antibody from OMT rats; IgG4 kappa by its name
